Key:
Human Rac1 [1] = molecular target: Human Rac1 (human, UniProt P63000 1-192); test: BLI; ForteBio BLItz; His-GEF1 (0.5 uM) or SR6-GEF1 (2 uM) loaded on Ni-NTA biosensors; nucleotide-free Rac1 at 4-5 concentrations in assay buffer (20 mM Hepes pH 7.25, 150 mM KCl, 5% glycerol, 0.01% TritonX-100, 1 mM DTT); Kd = koff/kon from the linear fit of kobs against Rac1 concentration; settings: both partners purified
Human Rac1 [2] = molecular target: Human Rac1 (human, UniProt P63000 1-192); test: as above; settings: both partners purified; remark: listed apart in the source

B1: Human Trio SR6-GEF1 (domain or fragment)
chain: not shown
notes: Trio, human, spectrin repeats 6-9 appended to the GEF1 domain, 99 kDa; amino acids 788 to 1599 as stated for SR6-GEF1 in the modelling paragraph; Cloned into the pFastBac1 HTa vector; The limits 788-1599 are printed for the modelled SR6-GEF1, not in the cloning paragraph; also called His-SR6-GEF1; WT SR6-GEF1; source: Hi5 cells infected with baculovirus, purified (Ni-NTA, S200 Increase)
With B1 the Kd (Human Rac1 [1]) was 316 nM.

B2: Human Trio GEF1 (domain or fragment)
chain: not shown
modifications: His tag omitted (used for Ni-NTA immobilization). The GEF1 limits are not printed: the C-terminus 1599 comes from the printed SR6-GEF1 construct (788-1599), and the N-terminus about 1284 follows the …
B2 was tested, and the Kd (Human Rac1 [2]) was 151 nM.
